Article PMC11640301, “Escherichia coli tRNA (Gm18) methyltransferase (TrmH) requires the correct localization of its methylation site (G18) in the D-loop for efficient methylation” (Journal of Biochemistry, 2023)
Positions count from the first letter of the chain named. In names and notes the source's numbering stands.

What was measured:
[1] = biological target: E. coli TrmH (without a tag sequence) (Escherichia coli, UniProt P0AGJ2); assay: radiometric filter assay, methyl transfer to tRNA transcript; assay type: biochemical; details: methyl donor; 200 μM SAM, tRNA^SerCGA transcript, pH 7.6, 37 °C; labelled compound
[2] = biological target: the molecule itself; assay: crystal structure; E107G TrmH co-crystallised with 2 mM SAM; hanging-drop vapor diffusion, 20°C, 100 mM HEPES-NaOH (pH 7.6), 5% MPD, 10% PEG 6000; space group C2, one E107G-SAM molecule per asymmetric unit; dimer
[3] = biological target: T1, TrmH (tRNA Gm18 methyltransferase) (Escherichia coli HB101 (gene source), UniProt P0AGJ2 1-229); assay: EMSA; 5 mM Mg-acetate, 400 mM KCl; no SAM listed; tRNA 4.25 uM, complex at enzyme below 10 uM; slightly weaker than T. thermophilus TrmH; 50 mM Tris-HCl pH 7.6, 5 mM Mg-acetate, 6 mM 2-mercaptoethanol, 400 mM KCl, 5% glycerol; room temperature 30 min; 4.25 uM tRNA, 0-17 uM TrmH; 6% native PAGE; details: protein: recombinant; tags: none (pET30a, untagged); chain copies: 2; label: none; tRNA cloverleaf, long variable region
T1 sequence: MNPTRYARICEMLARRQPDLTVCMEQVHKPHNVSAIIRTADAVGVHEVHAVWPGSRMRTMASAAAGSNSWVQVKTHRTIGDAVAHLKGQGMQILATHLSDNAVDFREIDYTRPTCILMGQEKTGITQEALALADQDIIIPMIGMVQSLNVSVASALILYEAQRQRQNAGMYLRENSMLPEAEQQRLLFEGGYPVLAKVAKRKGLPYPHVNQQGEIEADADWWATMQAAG

[4] = biological target: T2, TrmH (tRNA Gm18 methyltransferase) (Thermus thermophilus, UniProt Q5SM16 1-194); assay: EMSA; 5 mM Mg-acetate, 400 mM KCl; no SAM listed; tRNA 4.25 uM; 50 mM Tris-HCl pH 7.6, 5 mM Mg-acetate, 6 mM 2-mercaptoethanol, 400 mM KCl, 5% glycerol; room temperature 30 min; 4.25 uM tRNA, 0-17 uM TrmH; 6% native PAGE; details: protein: recombinant; chain copies: 2; label: none; tRNA cloverleaf, long variable region
T2 sequence: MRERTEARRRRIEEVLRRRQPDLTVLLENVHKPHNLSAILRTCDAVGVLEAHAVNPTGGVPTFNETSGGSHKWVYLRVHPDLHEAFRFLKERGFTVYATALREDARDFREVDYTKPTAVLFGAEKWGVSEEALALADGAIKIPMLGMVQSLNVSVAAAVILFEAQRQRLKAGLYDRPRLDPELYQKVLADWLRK

## C[S+](CC[C@H](N)C(=O)O)C[C@H]1O[C@@H](n2cnc3c(N)ncnc32)[C@H](O)[C@@H]1O (stereo partly drawn) [S-adenosyl-L-methionine]
[1]
  radiometric filter assay, methyl transfer to tRNA transcript: incorporation of the methyl group from [methyl-^3H]-SAM into E. coli tRNA^SerCGA transcript was monitored

B1: E. coli TrmH (E107G) mutant, tRNA (Gm18) methyltransferase, with 6x His tag (enzyme, UniProt P0AGJ2 1-229, looked up)
chain: T1 sequence with E107G
notes: TrmH, tRNA (Gm18) 2'-O-methyltransferase of Escherichia coli; trmH gene amplified from E. coli HB101 genomic DNA with primers from the start codon to the stop codon; Glu107 replaced with Gly; No removal of the His tag is described; One molecule per asymmetric unit, so the dimer is formed by crystal symmetry; also called E107G mutant TrmH; E107G-SAM; source: E. coli BL21 (DE3) Rosetta 2, …
[2]
  stoichiometry N: 2

B2: tRNASerCGA transcript (structured_RNA)
RNA: GGAGAGAUGCCGGAGCGGCUGAACGGACCGGUCUCGAAAACCGGAGUAGGGGCAACUCUACCGGGGGUUCAAAUCCCCCUCUCUCCGCCA
modifications: none (unmodified transcript)
[3]
  binding result: binds
[4]
  binding result: binds
